Results published in the DeepSol protein solubility set.

Assay: soluble on expression in E. coli; label from the status in PepcDB or PDB records

Sequence | soluble on expression in E. coli
ISRLLKNNLMDDVFNTENESFAQETRLIENEYSINLPTRFYYKKKWNDGWINVVNPFRASMVLGTPGSGKSYAIVNNYIKQQIEKGFAVYIYDYKFPDLSEIAYNHLISYLDGYKVKPKFYMINFDDPRKSHRCNPINPAFMTDISDAYEASYTIMLNLNRSWITKQGDFFVESPIILLASIIWFLKIYQGGKYCTFPHAIEFLNKKYADTFTILTSYPELENYLSPFMDAWESNAQDQLQGQLASAKIPLSRMISPALYWVMTGDDFSLDINNPEEPKILVVGNNPDRQNIYSCALGLYNSRIVKLINKKHQLKSSVIIDELPTIYFRGLDNLIATARSNKVAVCLGFQDFSQLRRDYGDKESKVIENTVGNIFSGQVVSETAKTLSDRFGKVLQKRQSMTINRNDKSTSISTQMDSLIPPSKISNLTQGMFVGAVSDNFDERIEQKIFHAEIMVDNEKVKRETASYKKLPQIIDFRDEDGNDRMQEEIQANYNRVKQEVQQIITDEIERIKNDPNLQNLLKHE | not soluble
MAHHHHHHMTEKENGNKDKRRKEKHRKHHRDRRESCNGVVNSSAAKTRPETAVAIEGADEEVENWDENRTRVDQLCQTYPNNMCNDCNNAGTRWASVNHGVFLCIRCSGIHRSLGVHVSKVKSANMDKWSAAEVHLMELIGNQRAKLLYEAHLPKDMKPMTFAESDATLQTFIQRKYQEKAFSVEAVDEKLRQYHKEARYGKKPKRNSSASRKKKANDGANDKAERSLKGEDTIKALYGSNAEVISKMSKRTGPIRGTFGVVNVGPEAYDERRKTLLEQFGFS | not soluble
MGSDKIHHHHHHMRKKNYYLVSDGKLRRHENTIYFENEDGKRPIPINSIYAIYALGSLSITSKAISLLAKEGVCIHFFNRYGYYIGSFYPRESLVSGEVVLRQAEHHLDSEKRLHLARAFVEGAILNMARVLKKAEQDDSDVIASLQHLSSAKSIVELMGAEAAARNAYYTKFDEILKNFEFGKRSRMPPENEVNAMISFGNSLLYSAVLSEIYHTQLNPAISYLHEPSERRFSLALDIAELFKPVIVDRLIFYLVNNGIVTESDFDSRLGGILLSEEGKKKFVRHFNERLEKTVKHRKLNRKVSYQRLIRLECYKLVKHFTAVEKYSPFVMWW | not soluble
MNPLKAGDIAPKFSLPDQDGEQVNLTDFQGQRVLVYFYPKAMTPGCTVQACGLRDNMDELKKAGVDVLGISTDKPEKLSRFAEKELLNFTLLSDENHQVCEQFGVWGEKSFMGKTYDGIHRISFLIDADGKIEHVFNDFKTSNHHDVVLNWLKENA | not soluble
GSPEKILAQIIQEHREGLDWQEAATRASLSLEETRKLLQSMAAAGQVTLLRVENDLYAISTERYQAWWQAVTRALEEFHSRYPLRPGLAREELRSRYFSRLPARVYQALLEEWSREGRLQLAANTVALAGFTPSFSETQKKLLKDLEDKYRVSRWQPPWVKEVAGSFNLDPSELEELLHYLVREGVLVKINDEFYWHRQALGEAREVIKNLASTGPFGLAEARDALGSSRKYVLPLLEYLDQVKFTRRVGDKRVVVGN | soluble
MSLDKPVIQIHTDNSSLIFRVADNGRLYQSYLGKKLNHEADISHLPQGTEAYITHGMEDYFEPAIHILHNDGNPSLLLKYVSHETKAVSQGVNETIITLGDDKYPVTVKLHYVTYPAEDIIKTYTEISHKEKKPVVLHQYASSMLHLNRAKYYLTEFSGDWAHEANISDQPLEFGKKVLDTKLGARANMFTPPFFQLSLDQLATENCGEVLVGTLGWTGNFRFTFEVDNKNELRIISGINPYASEYYLPAGVVFRTPDFYFTYSANGKGKASRNFHDWARRYQLKDGDETRMTLLNNWEATYFDFNEEKLIGLIGDAAGLGVDMFLLDDGWFANKYPRSSDHQGLGDWDETADKLPNGIGRLVEEATKKGIKFGLWIEPEMVNPKSELYEKHKDWVIHLPNRDEYYFRNQLVLDLSNPKVQDFVFGVVDDLMTKYPGIAFFKWDCNSPITNIYSSYLKEKQSHLYIDYVRGLYNVLERIKTKYPDLPMMLCSGGSGRIDYETLRYFTEFWPSDNTDPIERLFIQWGYSQLFPAKTLCAHVTTWNHDASIKFRTDVAMMGKLGFDIKLSDLNDNEKKFCRDAVTNYNHLKPVVLEGDMYRLVSPYSGNHTSTQYVGKDKKGAVVFAFDIYSRYGEKLLPVRLQGLDAGRQYRVKEINLMPGTNSSLQGNGELFSGEYLMTVGLNIFTGQRLNSRVIEVVAEEGHHPITTDPNSSSVDKLAAALEHHHHHH | soluble
GDTSWIKTGKVAWDWWNDWNLKGVPFKAGINMDTYKYYIDFASRNGLEFIVLDEGWYDPKSGDMLTVIPELDLPELIAYGKSKGVEIVLWTVFNVLDSQLEAACKKYADMGIKGFKVDFLDRDDQTAVEMVYRIAEMTARYKLTLDLHGIYKPTGINRTYPHII | not soluble
MAHHHHHHMRKGKSPSSFFSLHKKYLLTGVTILSFIFMFQYKYHEVLTVYEDKTNVQQSSRLFWTRLLFGRTRSRITGRIFNIEIPHSYRLYVYNFFIKYLNINKEEIKYPIESYKSLGDFFSRYIREDTRPIGDLNEYSIVSPCDSEIVDFGELTSNYLDNVKGIKFNIKTFLGSDMIKKYNDDSTSFYYAIFYLSPKKYHHFHAPFNFKYKIRRHISGEVFPVFQGMFKIINNLFDINERVILSGEWKGGHVYYAAISAYNVGNIKIVNDEDLLTNNLRTQLSYMGGDINTKIYDHYKDLEIGDEVGEFKVGSSIIVIFENKKNFKWNVKPNQQISVGERIGGVDQPKQPKNKFIKIRS | soluble
MKFVNFDEYKQLVDYFRNRLNPNYSSPTMLFIISITGMRASEAFGLVWDDIDFNNNTIKCRRTWNYRNKVGGFKKPKTDAGIRDIVIDDESMQLLKDFREQQKTLFESLGIKPIHDFVCYHPYRKIITLSALQNTLDHALKKLNISTPLTVHGLRHTHASVLLYHGVDIMTVSKRLGHASVAITQQTYIHIIKELENKDKDKIIELLMELLEHHHHHH | soluble
MSLKAPGALRLLCFSDTHEKHLKIPPHQIVPCDICICAGDFTKFGDPAEVKKFKDWFIKIPARYRVLIAGNHETTFDVERYGRMVTQMRKIKSDLPRETAKSIVQTDGIIYLENESVEIEGLKIYGSPQTHYWEFWAFYYPDKDGPKVWAKIPHDTDILVCHTCPRSTIDLMRGQHVGCKSLANAIKEVQPSLVIYGHLHEGYGVAKIGKSVIANVSLTNLARKLANRPMIFDVSFKTPEIPRPLPKQPEETEIPKDEGHHHHHH | soluble
ILRTKAQFVAMNEASLMQINHEWLQGTQSKQVTSQGETWQIDKRAESTISPNVQRIEIQVSLFDTQQNKVEAGITNLVFFNYPQKENAS | not soluble
MAHHHHHHMWHTTVMVPTQHWGAVGYFPAIVTRPSQLNFSGSYDPVAWSGPPSYPGQFAAGNRRQLGQQEQYRQPYSNYHNRPQPHRQMHAQPPYMAHRMTVNAVTYGFGDPTLGVYRTSADGWKYRGAYGGGRRPSPPFQAMVTRPLVSSNGRRRRGTHARANMAGGWGDLDTYDLYAFEAGENLDVDNMSYEELLELTERLGMVERGVQPARLNELRVVITPTHVKQQLESDRMVAGRNGLVKGGANIDQEEKEANEKMCEEDPIKCCICLDGVLVGQTATRMPCCRNFLHASCAAPWFV | not soluble
MGSDKIHHHHHHMQSPIPVLSMRKLYLGASDRQQFIADLGRAARDVGFFYLEDHGISLAEQVKVLDTAKSFFALSDAEKKQVQMIHSPHFRGYSANYSELTAGRPDRREQFDIMDELPALSASAIHHEWQKLIGPNQWPRQLPAIKSQLLSWQDKLTEVSLQLLAALCESLEQPADALAETISNGPYRHTKLIKYPGSPEASGQGVGAHKDPGYLTLVLQDENSGLEVEYEQQWYKVAPRPGAFVVNIGELLELASNGYLKATNHRVSSPKTGVTRYSSAFFMAAQLNASVPVLKLPSHLAKHAKGPTSDPGNPLLHNVGENVMKGRKRSHPDVSARFYASEEKCSSC | not soluble
MFIKIFLITYRYKLTVISIIGGGTIGSSIAIPLKRSGFEVIVTRRNTAVLKHLESYGISVMSDNKTASKEADVVFLTLKPVDIIPEVRKIEENIRGKLLISMAAAIPLKLIKDAAPHSIVVRAMTNIAAKVGAGFTPFCVDDGDQEVAKRASSILSALGEVYLVEEKYMDALTALSGSGPAYILTIIEAMMYGGLKLGLPRDLALKASYQTVMGSAKLLAESGEHPSELKEKVITPGGTTIDGIYELEDARVRTAIMKAIEVSTMKANKISESIKKLEQLEHHHHHH | not soluble
MGSDKIHHHHHHLTRREVVGLKLGDLMPRDLLKQELFVQDLKSHINDNVEIILKIRSKKLQETKDSKKFLIMTLEDRTGTVRAVDWYNAELNDQRLKEGNVVRVKGRVVFFENRIQINVDNDYGAIKILKSDEYDYTKFVAQSKKDLEILKKKLFVLLDQIKDQHYKKLLKAFFENKEFSEKFFRSPAGMRVHHAYIGGLLEHSVTVAEICKEISKYYSLDRDLLITGALLHDVGKVEEYRITESGIEVTTEGELKGHIAIGAAMVREMAKKLSIPEHKILELEHIILSHHGELEWGSPVVPKTIEALIVHHVENLDSKIARFIEVMESSESNQGWTEYDRNLGRRIFLRGGGTIVSLTV | not soluble
MEIQHLDGHIVKVQRDKVTWPGARLRKKDEGMPSLEDNNKKGMLVVTFDVEFPKTELSDEQKAQIIEILQQNTVKPKAYNGL | not soluble
MSLCPLTPVGKYLLLPLWLGVRPFFRALFRIEVIGKENIPEGACIVASNHRSHLDPPVLNAVFPEPLVFLAKEELFKPPFGGILKHMRAIPLRRGSEDISTLEECVSLLKLGCKIGIFPEGTRANPGEFKRAKPGVGFLAINSGFPVLPVYIDGTDRAFPRGKKFPKPFVKVSVVIGKPLEFKGLEPSVKNYKRVANEIMEEIKKLAQSLHRKEGHHHHHH | soluble
MSVFSLKIDIADNKFFNGETSPLFSQSQAKLARQFHQKIAGYRPTPLCALDDLANLFGVKKILVKDESKRFGLNAFKMLGGAYAIAQLLCEKYHLDIETLSFEHLKNAIGEKMTFATTTDGNHGRGVAWAAQQLGQNAVIYMPKGSAQERVDAILNLGAECIVTDMNYDDTVRLTMQHAQQHGWEVVQDTAWEGYTKIPTWIMQGYATLADEAVEQMREMGVTPTHVLLQAGVGAMAGGVLGYLVDVYSPQNLHSIIVEPDKADCIYRSGVKGDIVNVGGDMATIMAGLACGEPNPLGWEILRNCATQFISCQDSVAALGMRVLGNPYGNDPRIISGESGAVGLGVLAAVHYHPQRQSLMEKLALNKDAVVLVISTEGDTDVKHYREVVWEGKHAVAP | not soluble
MENSIRYISEHPTDFNGLLSLYESLGWNSLKLTVNELERMCKQSWYAIYVFDDKRLVGMGRVISDGVITGIICGVGVLPKYQSSGIGKEIVKRLIQHCEQNKVIPQLMCVEKLQSYYESIGFEAFSIGMTKHIIR | not soluble
MGSDKIHHHHHHMFYFTVNNPQDPLSTEIVETNRRDLAFWHRLRPKDDDDLATAINKICVRTGLSRKLIAACLFSICFLPYLPNFHKLVEKLGHLDMARINAITKAGEKVPSEKRELFDAYLVDYLTPRAEAQCLPQASSISAMMRKFIAQHCPDDKASSATNDGSIRYRRNNKGGISITVDATASEVTEIKAALEQMSKDKDCTPGTSLLHIIRGLPTKVVLNTYGTKDSPEYLEGGTWLSKEQSEFWKTRTTSSRDMDAAHFSYTTAYAPTREMRVYIKGLRTTCSVPGCSVAVENCQLDHIIPWGEGGPTTPWNIHPLCVFHHIQKTEGRLQCYPLPDGTVLFLVDGIPVFSIPDGPLSKSNKTWGTKFGKYMERRIAA | not soluble
